Assay results: article PMC7764042, “Interferon Beta Activity Is Modulated via Binding of Specific S100 Proteins” (International Journal of Molecular Sciences, 2020)
Substitutions are numbered along the chain they refer to. One block for each binder: values may come before it.

Key:
[1] = biological target: T1, recombinant human interferon beta-1a (human, UniProt P01574 22-187); assay: SPR; IFN-β immobilised on ProteOn GLH chip by amine coupling; Ca^2+-loaded S100 as analyte (0.25–5 µM S100A1, 0.5–5 µM S100A4/A6, 5 µM other S100); 25 °C; 10 mM HEPES, 150 mM NaCl, 0.01% TWEEN 20, pH 7.4, 1 mM CaCl2; heterogeneous ligand model; conditions: both partners purified
T1 construct: human interferon beta (interferon beta-1a), UniProt P01574; Pharmaceutical interferon beta-1a; also called IFN-β; Interferon-β; source: bought: Merck (Rebif), produced in CHO-K1 cells

[2] = biological target: the molecule itself; assay: SPR; estimate from the SPR data for 0.5 µM S100 analyte on immobilised IFN-β, 1 mM CaCl2; dimer to monomers, Ca^2+-loaded S100

- Kd [1]: ≥ 10 µM
B1: recombinant human S100A9 (natural protein, UniProt P06702 1-114, looked up)
chain: MTCKMSQLERNIETIINTFHQYSVKLGHPDTLNQGEFKELVRKDLQNFLKKENKNEKVIEHIMEDLDTNADKQLSFEEFIMLMARLTWASHEKMHEGDEGPGHHHKPGLGEGTP
notes: human S100A9, Swiss-Prot P06702, gene cloned into pET-11a between NdeI and BamHI; also called S10A9; source: E. coli BL21(DE3)pLysS, purified (ammonium sulfate, anion exchange, cation exchange, gel filtration)

- Kd [1]: ≥ 10 µM
B2: recombinant human S100A8 (natural protein, UniProt P05109 1-93, looked up)
chain: MLTELEKALNSIIDVYHKYSLIKGNFHAVYRDDLKKLLETECPQYIRKKGADVWFKELDINTDGAVNFQEFLILVIKMGVAAHKKSHEESHKE
notes: human S100A8, Swiss-Prot P05109, gene cloned into pHUE between SacII and HindIII; Made as a ubiquitin-S100 chimera and cut with Usp2; also called S10A8; source: E. coli BL21(DE3)-RIL, purified (IMAC, Usp2 cleavage, anion exchange, gel filtration)

- Kd [1]: ≥ 10 µM
B3: recombinant human S100A12 (natural protein, UniProt P80511 1-92, looked up)
chain: MTKLEEHLEGIVNIFHQYSVRKGHFDTLSKGELKQLLTKELANTIKNIKDKAVIDEIFQGLDANQDEQVDFQEFISLVAIALKAAHYHTHKE
notes: human S100A12, Swiss-Prot P80511, gene cloned into pHUE between SacII and HindIII; Made as a ubiquitin-S100 chimera and cut with Usp2; also called S10AC; source: E. coli BL21 (DE3) with pLacIRARE, purified (IMAC, Usp2 cleavage, anion exchange, gel filtration)

- Kd [1]: ≥ 10 µM
B4: recombinant human S100A13 (natural protein, UniProt Q99584 1-98, looked up)
chain: MAAEPLTELEESIETVVTTFFTFARQEGRKDSLSVNEFKELVTQQLPHLLKDVGSLDEKMKSLDVNQDSELKFNEYWRLIGELAKEIRKKKDLKIRKK
notes: human S100A13, Swiss-Prot Q99584, gene cloned into pET-11a between NdeI and BamHI; also called S10AD

B5: recombinant human S100A4 (natural protein)
chain: not shown
notes: human S100A4, Swiss-Prot P26447, gene cloned into pHUE between SacII and HindIII; Made as a ubiquitin-S100 chimera and cut with Usp2; also called S10A4; source: E. coli BL21 (DE3) with pLacIRARE, purified (IMAC, Usp2 cleavage, anion exchange, gel filtration)
- Kd [2]: ≤ 0.5 µM

- Kd [1]: ≥ 10 µM
B6: recombinant human S100A7 (natural protein, UniProt P31151 1-101, looked up)
chain: MSNTQAERSIIGMIDMFHKYTRRDDKIEKPSLLTMMKENFPNFLSACDKKGTNYLADVFEKKDKNEDKKIDFSEFLSLLGDIATDYHKQSHGAAPCSGGSQ
notes: human S100A7, Swiss-Prot P31151, gene cloned into pHUE between SacII and HindIII; Made as a ubiquitin-S100 chimera and cut with Usp2; also called S10A7; source: E. coli BL21(DE3)-RIL, purified (IMAC, Usp2 cleavage, anion exchange, gel filtration)

- Kd [1]: ≥ 10 µM
B7: recombinant human S100A15 (S100A7A) (natural protein, UniProt Q86SG5 1-101, looked up)
chain: B6 chain with R22G, D25G, T52I, N53H, D57T, T84A
notes: human S100A15 (S100A7A), Swiss-Prot Q86SG5, gene cloned into pHUE between SacII and HindIII; Made as a ubiquitin-S100 chimera and cut with Usp2; also called A1A7A; source: E. coli BL21(DE3)-RIL, purified (IMAC, Usp2 cleavage, anion exchange, gel filtration)

- Kd [1]: ≥ 10 µM
B8: recombinant human S100A11 (natural protein, UniProt P31949 1-105, looked up)
chain: MAKISSPTETERCIESLIAVFQKYAGKDGYNYTLSKTEFLSFMNTELAAFTKNQKDPGVLDRMMKKLDTNSDGQLDFSEFLNLIGGLAMACHDSFLKAVPSQKRT
notes: human S100A11, Swiss-Prot P31949, gene cloned into pHUE between SacII and HindIII; Made as a ubiquitin-S100 chimera and cut with Usp2; also called S10AB; source: E. coli BL21 (DE3) with pLacIRARE, purified (IMAC, Usp2 cleavage, anion exchange, gel filtration)

B9: recombinant human S100A1 (natural protein)
chain: GSELETAMETLINVFHAHSGKEGDKYKLSKKELKELLQTELSGFLDAQKDVDAVDKVMKELDENGDGEVDFQEYVVLVAALTVACNNFFWENS
notes: human S100A1, Swiss-Prot P23297, gene cloned into pHUE between SacII and HindIII; Made as a ubiquitin-S100 chimera and cut with Usp2; also called S10A1; source: E. coli BL21 (DE3) with pLacIRARE, purified (IMAC, Usp2 cleavage, anion exchange, gel filtration)
- Kd [2]: ≤ 0.5 µM

- Kd [1]: ≥ 10 µM
B10: recombinant human S100A14 (natural protein, UniProt Q9HCY8 1-104, looked up)
chain: MGQCRSANAEDAQEFSDVERAIETLIKNFHQYSVEGGKETLTPSELRDLVTQQLPHLMPSNCGLEEKIANLGSCNDSKLEFRSFWELIGEAAKSVKLERPVRGH
notes: human S100A14, Swiss-Prot Q9HCY8, gene cloned into pHUE between SacII and HindIII; Made as a ubiquitin-S100 chimera and cut with Usp2; also called S10AE; source: E. coli BL21(DE3)-RIL, purified (IMAC, Usp2 cleavage, second IMAC, gel filtration)
